No end group written: not given here. *: point of attachment. RhodamineB = CCN(CC)c1ccc2c(-c3ccccc3C(=O)*)c3ccc(=[N+](CC)CC)cc-3oc2c1
B1: RPtag(small) Nd2, Cd4 (peptide)
peptide: RhodamineB-KIPNFIPAELKLITK

Assays:
[1] = biological target: T1, NativeRPtag(large)_with_Tags_and_Cys (Thermoanaerobacter tengcongensis); assay: fluorescence anisotropy
T1 construct: Unlabeled in anisotropy assays; coupled through the engineered N-terminal Cys to SulfoLink agarose or maleimide plates in column, pull-down and ELISA assays
T1 chain: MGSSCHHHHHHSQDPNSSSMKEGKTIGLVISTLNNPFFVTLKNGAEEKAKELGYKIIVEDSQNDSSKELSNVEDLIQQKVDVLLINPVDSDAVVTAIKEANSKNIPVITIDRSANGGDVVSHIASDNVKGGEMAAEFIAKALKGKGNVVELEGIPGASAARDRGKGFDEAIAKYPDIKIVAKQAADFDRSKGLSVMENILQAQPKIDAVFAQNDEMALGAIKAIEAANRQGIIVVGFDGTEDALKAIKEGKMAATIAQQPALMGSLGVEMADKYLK

[2] = biological target: T1, NativeRPtag(large)_with_Tags_and_Cys; assay: fluorescence anisotropy, competitor chase
[3] = biological target: T1, NativeRPtag(large)_with_Tags_and_Cys; assay: fluorescence anisotropy, association kinetics
[4] = biological target: T1, NativeRPtag(large)_with_Tags_and_Cys; assay: calculated from koff and Kd
RPtag(small) Nd2, Cd4 = biological target: B1; assay: fluorescence anisotropy; 2 nM rhodamine Nd2Cd4, unlabeled RPtag large variant titrated; bar of Ka = 1/Kd, right axis
Method: (§1) After the incubation, fluorescence anisotropy was measured, and the resultant curves were fit with the equation f=y0+(ymax−y0)*(Ptot+x+Kd−sqrt((Ptot+x+Kd)\hat{ }2−4*Ptot*x))/(2*Ptot), where y0 is the baseline anisotropy, ymax is the maximum anisotropy, Ptot is the fixed concentration of labeled peptide used, x is the variable concentration of protein used, and Kd is the measured Kd. […] Buffer was 50 mM Tris pH 8.0, 0.005% Tween20.

[5] = biological target: T2, MaturePDGF-β_NterminalPeptide; assay: fluorescence anisotropy; 20 nM rhodamine PDGF-β N-terminal peptide, unlabeled RPtag large variant titrated; bar of Ka = 1/Kd, left axis
T2 construct: an N-terminal G was added and is left out of the numbering; also called PDGF-β peptide
T2 peptide: RhodamineB-GSLGSLTIAEPAMIAE
Method: as §1

B1
Kd [1]: 0.41 nM | koff [2]: 0.00132 s⁻¹ | Keq (S-S*) [3]: 0.7 | kf (S to S*) [3]: 0.093 min⁻¹ | kr (S* to S) [3]: 0.13 min⁻¹ | kon [4]: 3.33e+06 M⁻¹ s⁻¹

RhodamineB-KIANFIPAELKLITK [RPtag(small) Nd2, Cd4, p5a]
Kd [1]: 0.82 nM | koff [2]: 0.003 s⁻¹ | Keq (S-S*) [3]: 0.8 | kf (S to S*) [3]: 0.11 min⁻¹ | kr (S* to S) [3]: 0.14 min⁻¹ | kon [4]: 3.67e+06 M⁻¹ s⁻¹

RhodamineB-GEKIPNFIPAELKLITKENV [RPtag(small) Cd1]
Kd [1]: 0.55 nM | koff [2]: 0.000102 s⁻¹ | Keq (S-S*) [3]: 2.5 | kf (S to S*) [3]: 0.1 min⁻¹ | kr (S* to S) [3]: 0.042 min⁻¹ | kon [4]: 183000 M⁻¹ s⁻¹

RhodamineB-GEKAPNFIPAELKLITKENVQ [RPtag(small) i4a]
Kd [1]: 0.26 nM | koff [2]: 0.0001 s⁻¹ | Keq (S-S*) [3]: 0.9 | kf (S to S*) [3]: 0.086 min⁻¹ | kr (S* to S) [3]: 0.098 min⁻¹ | kon [4]: 400000 M⁻¹ s⁻¹

RhodamineB-GEKIPNFAPAELKLITKENVQ [RPtag(small) i8a]
Kd [1]: 1.1 nM | koff [2]: 0.0015 s⁻¹ | Keq (S-S*) [3]: 0.8 | kf (S to S*) [3]: 0.078 min⁻¹ | kr (S* to S) [3]: 0.046 min⁻¹ | kon [4]: 1.43e+06 M⁻¹ s⁻¹

RhodamineB-GEKIPNFIPAEAKLITKENVQ [RPtag(small) l12a]
Kd [1]: 4.7 nM | koff [2]: 0.00333 s⁻¹ | Keq (S-S*) [3]: 1.1 | kf (S to S*) [3]: 0.089 min⁻¹ | kr (S* to S) [3]: 0.081 min⁻¹ | kon [4]: 717000 M⁻¹ s⁻¹

B2: RPtag(small) v20a (peptide)
peptide: RhodamineB-GEKIPNFIPAELKLITKENAQ
notes: built here from the native peptide with the stated change
Kd [1]: 0.18 nM | koff [2]: 0.0002 s⁻¹ | Keq (S-S*) [3]: 1.5 | kf (S to S*) [3]: 0.073 min⁻¹ | kr (S* to S) [3]: 0.05 min⁻¹ | kon [4]: 1.13e+06 M⁻¹ s⁻¹

RhodamineB-GEKIPAFIPAELKLITKENVQ [RPtag(small) n6a]
Kd [1]: 0.34 nM | koff [2]: 2.5e-05 s⁻¹ | Keq (S-S*) [3]: 1.3 | kf (S to S*) [3]: 0.082 min⁻¹ | kr (S* to S) [3]: 0.068 min⁻¹ | kon [4]: 75000 M⁻¹ s⁻¹

B3: RPtag(small) q21a (peptide)
peptide: RhodamineB-GEKIPNFIPAELKLITKENVA
notes: as for B2
Kd [1]: 0.1 nM | koff [2]: 5.67e-05 s⁻¹ | Keq (S-S*) [3]: 0.8 | kf (S to S*) [3]: 0.087 min⁻¹ | kr (S* to S) [3]: 0.11 min⁻¹ | kon [4]: 583000 M⁻¹ s⁻¹

RhodamineB-GEKIPNFIPAELKLIAKENVQ [RPtag(small) t16a]
Kd [1]: 1.2 nM | koff [2]: 0.00148 s⁻¹ | Keq (S-S*) [3]: 2.5 | kf (S to S*) [3]: 0.071 min⁻¹ | kr (S* to S) [3]: 0.038 min⁻¹ | kon [4]: 1.25e+06 M⁻¹ s⁻¹

RhodamineB-GEKIPNFIAAELKLITKENVQ [RPtag(small) p9a]
Kd [1]: 0.18 nM | koff [2]: 4e-05 s⁻¹ | Keq (S-S*) [3]: 2.7 | kf (S to S*) [3]: 0.092 min⁻¹ | kr (S* to S) [3]: 0.04 min⁻¹ | kon [4]: 233000 M⁻¹ s⁻¹

RhodamineB-GEKIPNFIPAELKLATKENVQ [RPtag(small) i15a]
Kd [1]: 4.5 nM | koff [2]: 0.0183 s⁻¹ | Keq (S-S*) [3]: 1.4 | kf (S to S*) [3]: 0.077 min⁻¹ | kr (S* to S) [3]: 0.053 min⁻¹ | kon [4]: 4.17e+06 M⁻¹ s⁻¹

RhodamineB-GEKIPNFIPAELKLITK [RPtag(small) Cd4]
Kd [1]: 1 nM | koff [2]: 0.00367 s⁻¹ | Keq (S-S*) [3]: 1.3 | kf (S to S*) [3]: 0.014 min⁻¹ | kr (S* to S) [3]: 0.11 min⁻¹ | kon [4]: 3.67e+06 M⁻¹ s⁻¹

RhodamineB-GEKIPNFIPAELKLITKEN [RPtag(small) Cd2]
Kd [1]: 1.1 nM | koff [2]: 0.00183 s⁻¹ | Keq (S-S*) [3]: 3.5 | kf (S to S*) [3]: 0.15 min⁻¹ | kr (S* to S) [3]: 0.043 min⁻¹ | kon [4]: 1.63e+06 M⁻¹ s⁻¹

RhodamineB-KIPNFIPAELKLITKANAA [RPtag(small) Nd2, e18a, v20a, q21a]
Kd [1]: 0.36 nM | koff [2]: 0.000383 s⁻¹ | Keq (S-S*) [3]: 0.8 | kf (S to S*) [3]: 0.045 min⁻¹ | kr (S* to S) [3]: 0.06 min⁻¹ | kon [4]: 600000 M⁻¹ s⁻¹

RhodamineB-KIANFIPAELKLITKANAA [RPtag(small) Nd2, p5a, e18a, v20a, q21a]
Kd [1]: 0.16 nM | koff [2]: 0.000217 s⁻¹ | Keq (S-S*) [3]: 0.4 | kf (S to S*) [3]: 0.05 min⁻¹ | kr (S* to S) [3]: 0.14 min⁻¹ | kon [4]: 3.33e+06 M⁻¹ s⁻¹

B4: a253k (designed binder)
single chain: MGSSCHHHHHHSQDPNSSSMKEGKTIGLVISTLNNPFFVTLKNGAEEKAKELGYKIIVEDSQNDSSKELSNVEDLIQQKVDVLLINPVDSDAVVTAIKEANSKNIPVITIDRSANGGDVVSHIASDNVKGGEMAAEFIAKALKGKGNVVELEGIPGASAARDRGKGFDEAIAKYPDIKIVAKQAADFDRSKGLSVMENILQAQPKIDAVFAQNDEMALGAIKAIEAANRQGIIVVGFDGTEDALKAIKEGKMKATIAQQPALMGSLGVEMADKYLK
notes: also called RPtag(large) A253K
binding result (RPtag(small) Nd2, Cd4): binds | binding result [5]: binds

B5: d126w (designed binder)
single chain: MGSSCHHHHHHSQDPNSSSMKEGKTIGLVISTLNNPFFVTLKNGAEEKAKELGYKIIVEDSQNDSSKELSNVEDLIQQKVDVLLINPVDSDAVVTAIKEANSKNIPVITIDRSANGGDVVSHIASWNVKGGEMAAEFIAKALKGKGNVVELEGIPGASAARDRGKGFDEAIAKYPDIKIVAKQAADFDRSKGLSVMENILQAQPKIDAVFAQNDEMALGAIKAIEAANRQGIIVVGFDGTEDALKAIKEGKMAATIAQQPALMGSLGVEMADKYLK
notes: also called RPtag(large) D126W
binding result (RPtag(small) Nd2, Cd4): binds | binding result [5]: binds

B6: a253r (designed binder)
single chain: MGSSCHHHHHHSQDPNSSSMKEGKTIGLVISTLNNPFFVTLKNGAEEKAKELGYKIIVEDSQNDSSKELSNVEDLIQQKVDVLLINPVDSDAVVTAIKEANSKNIPVITIDRSANGGDVVSHIASDNVKGGEMAAEFIAKALKGKGNVVELEGIPGASAARDRGKGFDEAIAKYPDIKIVAKQAADFDRSKGLSVMENILQAQPKIDAVFAQNDEMALGAIKAIEAANRQGIIVVGFDGTEDALKAIKEGKMRATIAQQPALMGSLGVEMADKYLK
notes: also called RPtag(large) A253R
binding result (RPtag(small) Nd2, Cd4): binds | binding result [5]: binds

B7: d126a (designed binder)
single chain: MGSSCHHHHHHSQDPNSSSMKEGKTIGLVISTLNNPFFVTLKNGAEEKAKELGYKIIVEDSQNDSSKELSNVEDLIQQKVDVLLINPVDSDAVVTAIKEANSKNIPVITIDRSANGGDVVSHIASANVKGGEMAAEFIAKALKGKGNVVELEGIPGASAARDRGKGFDEAIAKYPDIKIVAKQAADFDRSKGLSVMENILQAQPKIDAVFAQNDEMALGAIKAIEAANRQGIIVVGFDGTEDALKAIKEGKMAATIAQQPALMGSLGVEMADKYLK
notes: also called RPtag(large) D126A
binding result (RPtag(small) Nd2, Cd4): binds | binding result [5]: binds

RhodamineB-EKIPNFIPAELKLITKENVQ [RPtag(small) Nd1]
Kd [1]: 0.25 nM | koff [2]: 0.000147 s⁻¹ | Keq (S-S*) [3]: 2.7 | kf (S to S*) [3]: 0.064 min⁻¹ | kr (S* to S) [3]: 0.024 min⁻¹ | kon [4]: 567000 M⁻¹ s⁻¹

RhodamineB-GEKIPNFIPAELKLITKE [RPtag(small) Cd3]
Kd [1]: 1.2 nM | koff [2]: 0.002 s⁻¹ | Keq (S-S*) [3]: 3.1 | kf (S to S*) [3]: 0.014 min⁻¹ | kr (S* to S) [3]: 0.045 min⁻¹ | kon [4]: 1.83e+06 M⁻¹ s⁻¹

RhodamineB-KIPNFIPAELKLITKE [RPtag(small) Nd2, Cd3]
Kd [1]: 0.56 nM | koff [2]: 0.000767 s⁻¹ | Keq (S-S*) [3]: 0.6 | kf (S to S*) [3]: 0.081 min⁻¹ | kr (S* to S) [3]: 0.14 min⁻¹ | kon [4]: 1.37e+06 M⁻¹ s⁻¹

RhodamineB-KIPNFIPAELKLITKA [RPtag(small) Nd2, Cd3, e18a]
Kd [1]: 0.13 nM | koff [2]: 0.000883 s⁻¹ | Keq (S-S*) [3]: 0.3 | kf (S to S*) [3]: 0.084 min⁻¹ | kr (S* to S) [3]: 0.26 min⁻¹ | kon [4]: 6.67e+06 M⁻¹ s⁻¹

RhodamineB-KIANFIPAELKLITKE [RPtag(small) Nd2, Cd3, p5a]
Kd [1]: 0.64 nM | koff [2]: 0.00267 s⁻¹ | Keq (S-S*) [3]: 0.6 | kf (S to S*) [3]: 0.093 min⁻¹ | kr (S* to S) [3]: 0.16 min⁻¹ | kon [4]: 4.33e+06 M⁻¹ s⁻¹

RhodamineB-KIANFIPAELKLITKA [RPtag(small) Nd2, Cd3, p5a, e18a]
Kd [1]: 0.56 nM | koff [2]: 0.003 s⁻¹ | Keq (S-S*) [3]: 0.7 | kf (S to S*) [3]: 0.086 min⁻¹ | kr (S* to S) [3]: 0.13 min⁻¹ | kon [4]: 5.5e+06 M⁻¹ s⁻¹
